A word on the stoichiometry N: it is a count of units in the complex or per binding partner.

From paper PMC9388150 (Proceedings of the National Academy of Sciences of the …, 2022) come the findings set out here.

For data set [1], the target named is CeOSM-3^G444E (C. elegans) (UniProt P46873).
The target of data set [2] is full-length TtKin5 kinesin-2 (T. thermophila) (UniProt Q7YUC7).
The data set “SEC-MALS” concerns the molecule itself. The experiment in a line: SEC-MALS.

Sequence of CeOSM-3^G444E (C. elegans) (P46873 whole entry G444E): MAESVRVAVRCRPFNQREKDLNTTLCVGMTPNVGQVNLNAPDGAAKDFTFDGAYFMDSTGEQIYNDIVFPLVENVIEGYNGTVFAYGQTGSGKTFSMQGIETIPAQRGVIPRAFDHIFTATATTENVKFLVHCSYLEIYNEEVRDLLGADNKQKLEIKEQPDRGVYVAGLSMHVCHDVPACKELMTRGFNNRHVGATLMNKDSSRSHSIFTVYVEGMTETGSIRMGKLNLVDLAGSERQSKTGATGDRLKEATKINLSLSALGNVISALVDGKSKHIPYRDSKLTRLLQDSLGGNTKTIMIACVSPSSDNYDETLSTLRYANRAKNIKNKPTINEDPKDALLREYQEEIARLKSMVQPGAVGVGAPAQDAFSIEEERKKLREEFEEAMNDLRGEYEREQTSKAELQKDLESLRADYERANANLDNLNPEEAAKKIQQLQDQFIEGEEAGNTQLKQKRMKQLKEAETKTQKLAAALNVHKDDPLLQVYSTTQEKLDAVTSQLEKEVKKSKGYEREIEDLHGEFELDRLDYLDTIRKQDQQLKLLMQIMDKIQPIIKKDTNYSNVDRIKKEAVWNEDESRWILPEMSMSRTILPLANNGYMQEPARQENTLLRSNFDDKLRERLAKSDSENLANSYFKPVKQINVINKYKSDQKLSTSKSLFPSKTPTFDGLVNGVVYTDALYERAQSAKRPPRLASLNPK

As for “CeIFT70/52 adaptor complex (from UniProt Q8I7G4 1-656)”, the velocity of CeOSM-3^G444E with CeIFT70/52 in single-molecule transport assays in data set [1] amounted to 1.7 µm/s.

TtIFT70/52 adaptor complex had a velocity of TtKin5 with TtIFT70/52 in single-molecule transport assays in data set [2] of 2 µm/s.

Molecule TtIFT70 (natural protein) gave a velocity of TtKin5 with TtIFT70 in single-molecule transport assays in data set [2] of 1.5 µm/s.

B1: full-length TtKin5 kinesin-2 (natural protein, T. thermophila, UniProt Q7YUC7 1-836, looked up)
chain: MSSETVKVMVRARPMNKLEISKGCANIVQVDPQTNQIILSNGKDAEAAKVFTYDYVFPPDIQQQTVYENSAFPLVESVVEGYNGTIFAYGQTGCGKTHSMLGKPNDEVEKGIIPRTFSHIINIVESANDKNFLVRCSYIEIYNEEIHDLLGKDAKARMDLKEYPDKGVFVKDLTMNVVKTVAEMEKWMNIGTENRSVGATAMNKDSSRSHSIFTLYIECSYKVEGDTEDHITAGKLNLVDLAGSERQSKTQATGDRLKEATKINLSLSALGNVISALVDGKSQHVPYRDSKLTRLLQDSLGGNTKTIMIAAISPADYNYEETLSTLRYASRAKNIKNQPKVNQDPKDALLKEYADEIKKLKEMLLKQQAGEQVNFNAVVNGNGQQQPQLAIQHSSSHVMNSSEVKKLKEKNDALNAERQQIEEEVKNKEKLFQQQMQEKLMIEQKLKEVEQKFIVGGTADQDKKKKISQMRNKLKKQMQEHEKIQEELKQKDEEFENLEIKYSSLQEELDATKKKVKKLNQKYKQAQSEIKDLEKEHEIQKEDLLDTIRYQQREVKILMSICQMLLTPDEIEIIKGQGEWQDDYQVYKLPPFYFKQKKLNFPKLPAAQAMDMIDQEKQSREIDFMRQNNNFDNRQNNNHQNGNSHSHSNSIKRIPSGTMDNFEDMNKFQFGNGPAKSNNTSRYNNGFQNGSDEFDLSKYDAGGGNSLHSIQESLKEKNNSPNIRIKKAHKVQQQPEKQRIPNVSLDPIESQRISQQKLMGLQDSHFLEPSFQGGEQRRSKNIQLQPIQARPLSNSQTVMNLNQLNKNNINMNSIDFDQIANKTPNRVKLDKIQVPR
Regarding B1, the “stoichiometry N” value in “SEC-MALS” amounted to 2.
